Reference: patent USRE47150 (Bayer, dated 2018)

T1: human tissue factor pathway inhibitor (TFPI) (human, UniProt P10646 29-304, limits assumed)
T1 construct: bought; also called hTFPI; human TFPI
T1 sequence (looked up): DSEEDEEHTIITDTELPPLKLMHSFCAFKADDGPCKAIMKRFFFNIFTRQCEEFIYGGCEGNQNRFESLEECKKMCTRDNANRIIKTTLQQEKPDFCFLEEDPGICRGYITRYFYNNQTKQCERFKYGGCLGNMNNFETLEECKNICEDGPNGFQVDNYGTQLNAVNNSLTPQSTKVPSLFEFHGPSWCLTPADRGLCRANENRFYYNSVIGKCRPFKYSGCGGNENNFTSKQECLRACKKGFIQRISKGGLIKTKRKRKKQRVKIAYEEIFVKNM

T2: mouse tissue factor pathway inhibitor (TFPI) (mouse, UniProt O54819 29-289, limits assumed)
T2 construct: bought; also called mTFPI; murine TFPI
T2 sequence (looked up): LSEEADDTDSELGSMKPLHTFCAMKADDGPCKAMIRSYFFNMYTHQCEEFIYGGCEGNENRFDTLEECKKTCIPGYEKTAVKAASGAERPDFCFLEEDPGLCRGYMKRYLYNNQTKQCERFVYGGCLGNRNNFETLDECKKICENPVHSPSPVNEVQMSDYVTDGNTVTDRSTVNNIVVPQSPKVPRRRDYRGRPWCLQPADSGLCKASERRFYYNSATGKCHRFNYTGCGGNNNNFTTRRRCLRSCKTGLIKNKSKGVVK


Columns and labels:
[1] = molecular target: T1, human tissue factor pathway inhibitor …; test: competitive ELISA
[2] = molecular target: T2, mouse tissue factor pathway inhibitor …; test: equilibrium ELISA

Binder | variant/wild-type [1] [ratio] | variant/wild-type [2] [ratio]
4B7 HC_N32E (Fab, V domains shown) VH: QVQLQQSGPGLVKPSQTLSLTCAISGDSVSSESAAWSWIRQSPGRGLEWLGIIYKRSKWYNDYAVSVKSRITINPDTSKNQFSLQLNSVTPEDTAVYYCARWHSDKHWGFDYWGQGTLVTVSS VL: DIVMTQSPLSLPVTPGEPASISCRSSQSLVFSDGNTYLNWYLQKPGQSPQLLIYKGSNRASGVPDRFSGSGSGTDFTLKISRVEAEDVGVYYCQQYDSYPLTFGQGTKVEIKR | 3.2 | 2.1
4B7 LC_N35L LC_G56A (Fab, V domains shown) VH: QVQLQQSGPGLVKPSQTLSLTCAISGDSVSSNSAAWSWIRQSPGRGLEWLGIIYKRSKWYNDYAVSVKSRITINPDTSKNQFSLQLNSVTPEDTAVYYCARWHSDKHWGFDYWGQGTLVTVSS VL: DIVMTQSPLSLPVTPGEPASISCRSSQSLVFSDGLTYLNWYLQKPGQSPQLLIYKASNRASGVPDRFSGSGSGTDFTLKISRVEAEDVGVYYCQQYDSYPLTFGQGTKVEIKR | 3.1 | 6.9
4B7 HC_S30R HC_S57K (Fab, V domains shown) VH: QVQLQQSGPGLVKPSQTLSLTCAISGDSVRSNSAAWSWIRQSPGRGLEWLGIIYKRKKWYNDYAVSVKSRITINPDTSKNQFSLQLNSVTPEDTAVYYCARWHSDKHWGFDYWGQGTLVTVSS VL: DIVMTQSPLSLPVTPGEPASISCRSSQSLVFSDGNTYLNWYLQKPGQSPQLLIYKGSNRASGVPDRFSGSGSGTDFTLKISRVEAEDVGVYYCQQYDSYPLTFGQGTKVEIKR | 1.6 | 6.6
4B7 HC_S33G (Fab, V domains shown) VH: QVQLQQSGPGLVKPSQTLSLTCAISGDSVSSNGAAWSWIRQSPGRGLEWLGIIYKRSKWYNDYAVSVKSRITINPDTSKNQFSLQLNSVTPEDTAVYYCARWHSDKHWGFDYWGQGTLVTVSS VL: DIVMTQSPLSLPVTPGEPASISCRSSQSLVFSDGNTYLNWYLQKPGQSPQLLIYKGSNRASGVPDRFSGSGSGTDFTLKISRVEAEDVGVYYCQQYDSYPLTFGQGTKVEIKR | 1.5 | 6.5
4B7 LC_F31M (Fab, V domains shown) VH: QVQLQQSGPGLVKPSQTLSLTCAISGDSVSSNSAAWSWIRQSPGRGLEWLGIIYKRSKWYNDYAVSVKSRITINPDTSKNQFSLQLNSVTPEDTAVYYCARWHSDKHWGFDYWGQGTLVTVSS VL: DIVMTQSPLSLPVTPGEPASISCRSSQSLVMSDGNTYLNWYLQKPGQSPQLLIYKGSNRASGVPDRFSGSGSGTDFTLKISRVEAEDVGVYYCQQYDSYPLTFGQGTKVEIKR | 1.7 | 1.3
4B7 LC_N35T (Fab, V domains shown) VH: QVQLQQSGPGLVKPSQTLSLTCAISGDSVSSNSAAWSWIRQSPGRGLEWLGIIYKRSKWYNDYAVSVKSRITINPDTSKNQFSLQLNSVTPEDTAVYYCARWHSDKHWGFDYWGQGTLVTVSS VL: DIVMTQSPLSLPVTPGEPASISCRSSQSLVFSDGTTYLNWYLQKPGQSPQLLIYKGSNRASGVPDRFSGSGSGTDFTLKISRVEAEDVGVYYCQQYDSYPLTFGQGTKVEIKR | 5.4 | 3.4
4B7 LC_F31I (Fab, V domains shown) VH: QVQLQQSGPGLVKPSQTLSLTCAISGDSVSSNSAAWSWIRQSPGRGLEWLGIIYKRSKWYNDYAVSVKSRITINPDTSKNQFSLQLNSVTPEDTAVYYCARWHSDKHWGFDYWGQGTLVTVSS VL: DIVMTQSPLSLPVTPGEPASISCRSSQSLVISDGNTYLNWYLQKPGQSPQLLIYKGSNRASGVPDRFSGSGSGTDFTLKISRVEAEDVGVYYCQQYDSYPLTFGQGTKVEIKR | 9.1 | 23.6
4B7 HC_S57K (Fab, V domains shown) VH: QVQLQQSGPGLVKPSQTLSLTCAISGDSVSSNSAAWSWIRQSPGRGLEWLGIIYKRKKWYNDYAVSVKSRITINPDTSKNQFSLQLNSVTPEDTAVYYCARWHSDKHWGFDYWGQGTLVTVSS VL: DIVMTQSPLSLPVTPGEPASISCRSSQSLVFSDGNTYLNWYLQKPGQSPQLLIYKGSNRASGVPDRFSGSGSGTDFTLKISRVEAEDVGVYYCQQYDSYPLTFGQGTKVEIKR | 1.7 | 6.5
4B7 HC_N61G (Fab, V domains shown) VH: QVQLQQSGPGLVKPSQTLSLTCAISGDSVSSNSAAWSWIRQSPGRGLEWLGIIYKRSKWYGDYAVSVKSRITINPDTSKNQFSLQLNSVTPEDTAVYYCARWHSDKHWGFDYWGQGTLVTVSS VL: DIVMTQSPLSLPVTPGEPASISCRSSQSLVFSDGNTYLNWYLQKPGQSPQLLIYKGSNRASGVPDRFSGSGSGTDFTLKISRVEAEDVGVYYCQQYDSYPLTFGQGTKVEIKR | 2.2 | 1.4
4B7 LC_D97T (Fab, V domains shown) VH: QVQLQQSGPGLVKPSQTLSLTCAISGDSVSSNSAAWSWIRQSPGRGLEWLGIIYKRSKWYNDYAVSVKSRITINPDTSKNQFSLQLNSVTPEDTAVYYCARWHSDKHWGFDYWGQGTLVTVSS VL: DIVMTQSPLSLPVTPGEPASISCRSSQSLVFSDGNTYLNWYLQKPGQSPQLLIYKGSNRASGVPDRFSGSGSGTDFTLKISRVEAEDVGVYYCQQYTSYPLTFGQGTKVEIKR | 1.8 | 5.5
4B7 HC_N61G HC_D62V (Fab, V domains shown) VH: QVQLQQSGPGLVKPSQTLSLTCAISGDSVSSNSAAWSWIRQSPGRGLEWLGIIYKRSKWYGVYAVSVKSRITINPDTSKNQFSLQLNSVTPEDTAVYYCARWHSDKHWGFDYWGQGTLVTVSS VL: DIVMTQSPLSLPVTPGEPASISCRSSQSLVFSDGNTYLNWYLQKPGQSPQLLIYKGSNRASGVPDRFSGSGSGTDFTLKISRVEAEDVGVYYCQQYDSYPLTFGQGTKVEIKR | 8 | 31.1
4B7 LC_D33F (Fab, V domains shown) VH: QVQLQQSGPGLVKPSQTLSLTCAISGDSVSSNSAAWSWIRQSPGRGLEWLGIIYKRSKWYNDYAVSVKSRITINPDTSKNQFSLQLNSVTPEDTAVYYCARWHSDKHWGFDYWGQGTLVTVSS VL: DIVMTQSPLSLPVTPGEPASISCRSSQSLVFSFGNTYLNWYLQKPGQSPQLLIYKGSNRASGVPDRFSGSGSGTDFTLKISRVEAEDVGVYYCQQYDSYPLTFGQGTKVEIKR | 5.3 | 7
4B7 LC_D97M (Fab, V domains shown) VH: QVQLQQSGPGLVKPSQTLSLTCAISGDSVSSNSAAWSWIRQSPGRGLEWLGIIYKRSKWYNDYAVSVKSRITINPDTSKNQFSLQLNSVTPEDTAVYYCARWHSDKHWGFDYWGQGTLVTVSS VL: DIVMTQSPLSLPVTPGEPASISCRSSQSLVFSDGNTYLNWYLQKPGQSPQLLIYKGSNRASGVPDRFSGSGSGTDFTLKISRVEAEDVGVYYCQQYMSYPLTFGQGTKVEIKR | 2.4 | 1.3
4B7 HC_Y112D (Fab, V domains shown) VH: QVQLQQSGPGLVKPSQTLSLTCAISGDSVSSNSAAWSWIRQSPGRGLEWLGIIYKRSKWYNDYAVSVKSRITINPDTSKNQFSLQLNSVTPEDTAVYYCARWHSDKHWGFDDWGQGTLVTVSS VL: DIVMTQSPLSLPVTPGEPASISCRSSQSLVFSDGNTYLNWYLQKPGQSPQLLIYKGSNRASGVPDRFSGSGSGTDFTLKISRVEAEDVGVYYCQQYDSYPLTFGQGTKVEIKR | 2.9 | 5.7
4B7 LC_N35L (Fab, V domains shown) VH: QVQLQQSGPGLVKPSQTLSLTCAISGDSVSSNSAAWSWIRQSPGRGLEWLGIIYKRSKWYNDYAVSVKSRITINPDTSKNQFSLQLNSVTPEDTAVYYCARWHSDKHWGFDYWGQGTLVTVSS VL: DIVMTQSPLSLPVTPGEPASISCRSSQSLVFSDGLTYLNWYLQKPGQSPQLLIYKGSNRASGVPDRFSGSGSGTDFTLKISRVEAEDVGVYYCQQYDSYPLTFGQGTKVEIKR | 2.1 | 6
4B7 LC_D33R (Fab, V domains shown) VH: QVQLQQSGPGLVKPSQTLSLTCAISGDSVSSNSAAWSWIRQSPGRGLEWLGIIYKRSKWYNDYAVSVKSRITINPDTSKNQFSLQLNSVTPEDTAVYYCARWHSDKHWGFDYWGQGTLVTVSS VL: DIVMTQSPLSLPVTPGEPASISCRSSQSLVFSRGNTYLNWYLQKPGQSPQLLIYKGSNRASGVPDRFSGSGSGTDFTLKISRVEAEDVGVYYCQQYDSYPLTFGQGTKVEIKR | 3.6 | 7.2
4B7 LC_D33F LC_Y54F (Fab, V domains shown) VH: QVQLQQSGPGLVKPSQTLSLTCAISGDSVSSNSAAWSWIRQSPGRGLEWLGIIYKRSKWYNDYAVSVKSRITINPDTSKNQFSLQLNSVTPEDTAVYYCARWHSDKHWGFDYWGQGTLVTVSS VL: DIVMTQSPLSLPVTPGEPASISCRSSQSLVFSFGNTYLNWYLQKPGQSPQLLIFKGSNRASGVPDRFSGSGSGTDFTLKISRVEAEDVGVYYCQQYDSYPLTFGQGTKVEIKR | 4.3 | 7.9
4B7 LC_N35I (Fab, V domains shown) VH: QVQLQQSGPGLVKPSQTLSLTCAISGDSVSSNSAAWSWIRQSPGRGLEWLGIIYKRSKWYNDYAVSVKSRITINPDTSKNQFSLQLNSVTPEDTAVYYCARWHSDKHWGFDYWGQGTLVTVSS VL: DIVMTQSPLSLPVTPGEPASISCRSSQSLVFSDGITYLNWYLQKPGQSPQLLIYKGSNRASGVPDRFSGSGSGTDFTLKISRVEAEDVGVYYCQQYDSYPLTFGQGTKVEIKR | 3.6 | 7.1
